Laboratory results from patent US20200155602A1 (IMMATICS BIOTECHNOLOGIES, published 2020).

Molecular target: T1, HLA-A*02:01 (human)
T1 construct: Peptide-receptive HLA-A*02:01 monomer obtained by UV cleavage of a UV-sensitive ligand; captured on streptavidin plates; also called peptide-receptive MHC molecules; MHC class I
Test: UV-ligand exchange, anti-b2m ELISA; grade of peptide exchange yield (>10% = +; >20% = ++; >50 = +++; >75% = ++++)
Source text: Candidate peptides for T cell based therapies according to the present invention were further tested for their MHC binding capacity (affinity). The individual peptide-MHC complexes were produced by UV-ligand exchange, where a UV-sensitive peptide is cleaved upon UV-irradiation, and exchanged with the peptide of interest as analyzed. Only peptide candidates that can effectively bind and stabilize the peptide-receptive MHC molecules prevent dissociation of the MHC complexes. To determine the yield of the exchange reaction, an ELISA was performed based on the detection of the light chain (β2m) of stabilized MHC complexes. The assay was performed as generally described in Rodenko et al. (Rodenko et al., 2006).
96 well MAXISorp plates (NUNC) were coated over night with 2 ug/ml streptavidin in PBS at room temperature, washed 4× and blocked for 1 h at 37° C. in 2% BSA containing blocking buffer. Refolded HLA-A*02:01/MLA-001 monomers served as standards, covering the range of 15-500 ng/ml. Peptide-MHC monomers of the UV-exchange reaction were diluted 100-fold in blocking buffer. Samples were incubated for 1 h at 37° C., washed four times, incubated with 2 ug/ml HRP conjugated anti-β2m for 1 h at 37° C., washed again and detected with TMB solution that is stopped with […]. Absorption was measured at 450 nm. Candidate peptides that show a high exchange yield (preferably higher than 50%, most preferred higher than 75%) are generally preferred for a generation and production of antibodies or fragments thereof, and/or T cell receptors or fragments thereof, as they show sufficient avidity to the MHC molecules and prevent dissociation of the MHC complexes.

| Binder | peptide exchange yield |
| --- | --- |
| ALVGDVILTV | > 75% |
| YLYPDLSRL | > 75% |
| YLWEAHTNI | > 75% |
| VCPPGGIQEV | 50 to 75% |
| YLINEIDRIRA | > 75% |
| SMLNNIINL | 50 to 75% |
| VLFSSPPVI | > 75% |
| KLLPGVQYV | > 75% |
| GLWSSIFSL | > 75% |
| KLPEPCPSTV | 50 to 75% |
| AVDPVSGSLYV | > 75% |
| ALKDSVQRA | 50 to 75% |
| TLVDENQSWYL (also called TLVDENQSWYL) […] | 50 to 75% |
| TLTDEINFL | > 75% |
| AIYEGVGWNV | > 75% |
| YLLDYPNNL | 50 to 75% |
| SLYGLGGSKRISI | 50 to 75% |
| GLAGGFGGPGFPV | > 75% |
| ALDTFSVQV | > 75% |
| RLNGEGVGQVNISV | 20 to 50% |
| RLSGEGVGPV | 50 to 75% |
| LLTPLNLQI | 50 to 75% |
| GLGDDSFPI | > 75% |
| GLIEWLENTV | > 75% |
| SLVSYLDKV | > 75% |
| TLASLGYAVV | 50 to 75% |
| IQDAEGAIHEV | > 75% |

| Binder | peptide exchange yield |
| --- | --- |
| ALSNVVHKV | > 75% |
| LLFTGLVSGV | 50 to 75% |
| ILDINDNPPV | 50 to 75% |
| VLDINDNPPV | 50 to 75% |
| GLISSIEAQL | > 75% |
| SIWPALTQV | > 75% |
| QLLEGELETL | 50 to 75% |
| HLATVKLLV | > 75% |
| SLCPPGGIQEV | > 75% |
| VLNVGVAEV | 50 to 75% |
| LLIAINPQV | > 75% |
| FLHEPFSSV | > 75% |
| LLPEDDTRDNV | 50 to 75% |
| ILLEDVFQL | > 75% |
| RLLPDLDEV | > 75% |
| RLVEVGGDVQL | > 75% |
| PVCPPGGIQEV | 50 to 75% |
| TLWPATPPKA | 50 to 75% |
| ALYTSGHLL | > 75% |
| AILGFALSEA | > 75% |
| ALAKLLPLL | > 75% |
| FLQLETEQV | > 75% |
| FLIPSIIFA | > 75% |
| SLPESGLLSV | 50 to 75% |
| AVLGGKLYV | > 75% |
| YLAEPQWAV | > 75% |
| RIMEGIPTV | > 75% |
